For orientation: EC50 means the concentration needed to bring the measured effect to its halfway point. As usually defined, the Kd is the concentration at which binding is half-saturated.

Among the data in US20150218283A1 (BIOSCEPTRE INTERNATIONAL, published 2015) are EC50 and Kd values, retold here.

In test [1] the target is T1, E200-300 peptide (complex peptide epitope of human P2X7 receptor).
T1 peptide: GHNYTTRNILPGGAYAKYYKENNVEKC
Put plainly: ELISA; Fab.

Test [2] has as its target T2, E200-300 peptide (complex peptide epitope of human P2X7 receptor) (human).
T2 construct: also called antigen E200-300
T2 peptide: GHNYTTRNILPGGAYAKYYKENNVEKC
Put plainly: ELISA on the E200-300 epitope target.

In test [3] the target is T2, E200-300 peptide (complex peptide …). Description: method not stated.

B1: 2F6 WT recombinant Fab (Fab, V domains shown)
VH: DVKLVESGGGLVKLGGSLKLSCAASGFTFSSYYMSWVRQTPEKRLELVAAINSNGGSTYYPDTVKGRFTISRDNAKNTLYLQMSSLKSEDTAFYYCTRHYSSRFFDVWGAGTTVTVSS
VL: DIVMTQSQKFMSTSVGDRVSVTCKASQNVGTNVAWYQQKPGQSPKALIYSASFRYSGVPDRFTGSGSGTDFTLTISNVQSEDLAEFFCQQYNSYPFTFGSGTRLEIK
B1 displayed an EC50 in test [1] of roughly 250 mg/L.

B2: 2F6 IgM antibody (original mouse hybridoma antibody, IgM class with Kappa light chains) (antibody, V domains shown)
VH: B1 VH
VL: B1 VL
notes: Mouse IgM, kappa light chain, grown in mouse ascites; also called original IgM; IgM form of the original antibody
In test [2], B2 yielded an EC50 of 0.14 mg/L.

B3: recombinant 2F6 mouse IgG2a (antibody, V domains shown)
VH: B1 VH
VL: B1 VL
notes: also called 2F6 mIgG2a; mouse IgG2a-2F6
For the molecule B3, a half-maximal response in test [2] (EC50) required 1.6 mg/L.

B4: 2F6 hIgG1 (antibody, V domains shown)
VH: B1 VH
VL: B1 VL
With B4, binding in test [3] was put at a Kd of 0.05 µM.
